# Measurements taken from patent US20160272995A1, “MANIPULATION OF PLASMODESMAL CONNECTIVITY TO IMPROVE PLANT YIELD AND FITNESS” (UNIVERSITY OF DELAWARE, priority 2013, published 2016).
# Where “and” joins values, the source holds several entries; their conditions need not be identical. Identical values can stand only once.
# B1: PDLP5OE: Wild-type A. thaliana PDLP5 protein (SEQ ID NO:4) constitutively overexpressed in plants under the 35S promoter (protein, listed as Arabidopsis thaliana)
# chain: MIKTKTTSLLCFLLTAVILMNPSSSSPTDNYIYAVCSPAKFSPSSGYETNLNSLLSSFVTSTAQTRYANFTVPTGKPEPTVTVYGIYQCRGDLDPTACSTCVSSAVAQVGALCSNSYSGFLQMENCLIRYDNKSFLGVQDKTLILNKCGQPMEFNDQDALTKASDVIGSLGTGDGSYRTGGNGNVQGVAQCSGDLSTSQCQDCLSDAIGRLKSDCGMAQGGYVYLSKCYARFSVGGSHARQTPGPNFGHEGEKGNKDDNGVGKTLAIIIGIVTLIILLVVFLAFVGKCCRKLQDEKWCK
# Columns and labels:
# [1] = tested on: lateral root primordia (LRP); assay: LRP progression after gravitropic stimulus; type: in vivo, Arabidopsis thaliana; conditions: by 48 hpg
# Protocol: (A) Lateral root development in wild type (WT) plants, plants having a severe knock down of PDLP5 (pdlp5-1), and plants overexpressing PDLP5 (PDLPOE) expressing DR5:GUS. Arrowheads indicate tertiary roots. (B) Quantification of total lateral root numbers (both emerged and unemerged secondary [2°], tertiary [3°], and quaternary [4°] roots). n≧30 per seedling set. Bars, standard deviation. Stars, significance determined by student T-test (P<0.01). (C) A diagram depicting several stages of LRP emergence. (D) Percent distribution of LRP stages, recorded at root bend at indicated time points following gravistimulation at 3 dpg. n≧20 seedlings per set. […]
# GUS solution (100 mM sodium phosphate buffer, pH 7.0, 10 mM EDTA, 0.5 mM each potassium ferrocyanide and potassium ferricyanide, 1.24 mM X-Gluc, and 0.1% Triton X-100) was vacuum-infiltrated into plant tissue for five minutes, then removed from vacuum and incubated in 37° C. for 3 to 12 hrs, followed by a series of ethanol washes. […] LRP were quantified by counting both the emerged LR and unemerged LR, as determined by DRS::GUS staining of the primordia, under a dissecting microscope (1.2× magnification). LRP stages were determined by examining ethanol-cleared, GUS-stained tissue using 40× water lens.
# LAX3pro:LAX3-YFP = LAX3pro:LAX3-YFP signal in overlying Co cells after gravistimulation; type: in vivo, Arabidopsis thaliana
# Protocol: (A) Seedlings were gravistimulated at 3 days post germination and the LAX3::LAX3-YFP signal was monitored under a confocal microscope from 14 hours post-gravitropic induction through 36 hours post-gravitropic induction at the root bend. Images were selected to show the earliest detection time points. […] Scale bars, 50 μm. (B) Quantification of relative occurrence of LAX3-YFP signal in Co at 22 hours post-gravitropic induction (hpg) based on the data presented in Table 3.
# We monitored LAX3-YFP signal accumulation in overlying Co using the gravitropic assay.
# Arabidopsis seedlings expressing LAX3::LAX3:YFP in the desired background were grown as described above for three days, followed by gravistimulation by turning the plates 90° . The cortical cell fluorescence at the root bend was monitored at different time points using a Zeiss LSM 780 confocal upright light microscope using a W Plan-Apochromat 20×/1.0 DIC M27 75 mm objective and the […] excitation line of an argon laser with 520-550 nm band pass emission filter. Images are presented as 3-D composites of 30 μm-thick z-stacks.
# Arabidopsis thaliana = assay: Vegetative growth, flowering and seed yield of plants; type: in vivo; conditions: 22-20° C., 16/8 hours light/darkness
# Protocol: Wild type (WT) plants, plants overexpressing […]), and plants with a severe knock down of […] used as comparisons. (a) Whole plants at 10, 14, and 18 days post germination (dpg). Plants were grown at 22-20° C. with 50% humidity and with 16/8 hours light/darkness. (b) Leaves at 3 weeks post germination. Plants were grown at 24-22° C. with 70% humidity and with 16/8 hours light/darkness. […] Wild type (WT) plants, plants overexpressing PDLP5 (OX), and plants with a severe knock down of PDLP5 (KO) were used as comparisons. […] Seeds were germinated on plates, were transferred to soil after 1 week, and plants were grown at 22-20° C. with 16/8 hours light/darkness. […] Wild type (WT) plants and plants overexpressing […]) were used as comparisons. Plants were grown at 24-22° C. with 70% humidity and with 16/8 hours light/darkness. […] The sequence of the PCR product was confirmed followed by transformation of Top10 E. coli competent cells. […] Agrobacteria were transformed with the […]5 clone.
# Pseudomonads = conditions: Arabidopsis plants; cited from earlier work
# [2] = 22 hours post-gravitropic stimulation
molecule,measurement,setting,value
B1,LRP emergence,[1],none had yet emerged
same,"LAX3pro:LAX3-YFP cortical signal, ratio PDLP5:WT",LAX3pro:LAX3-YFP; 24 hpg,0.42 and 0.68
same,"LAX3pro:LAX3-YFP cortical signal, seedlings",LAX3pro:LAX3-YFP; 24 hpg,33%
same,"LAX3pro:LAX3-YFP cortical signal, ratio PDLP5:WT","LAX3pro:LAX3-YFP; 24 hpg, mean",0.55
same,"LAX3pro:LAX3-YFP cortical signal, ratio PDLP5:WT",LAX3pro:LAX3-YFP; 36 hpg,1
same,ratio to WT of seedlings expressing LAX3pro:LAX3-YFP in Co cells,LAX3pro:LAX3-YFP; [2],0
same,seedlings expressing LAX3pro:LAX3-YFP in overlaying Co cells,LAX3pro:LAX3-YFP; [2],no fluorescent signals evident
same,rosette diameter,Arabidopsis thaliana,reduced rosette diameter
same,immunity to infection,Pseudomonads,innate immunity to Pseudomonads infection
